B1: Histone H3 lysine N6-trimethylated peptide (H3K4me3) (peptide, UniProt P68431 2-14, looked up)
peptide: ARTKQTARKSTGG
modifications: N6-trimethyl-lysine at 4
notes: histone H3 N-terminal tail, residues 1–13 (chain C of the ternary complex), Lys4 trimethylated; The text says that it has four positively charged residues and no negatively charged one; The limits 1–13 are those of chain C of the structure; also called H3K4me3 peptide; histone H3 tail
B2: MLL1 third plant homeodomain (PHD3) (domain or fragment, UniProt Q03164 1564-1627, looked up)
chain: AKGNFCPLCDKCYDDDDYESKMMQCGKCDRWVHSKCENLSDEMYEILSNLPESVAYTCVNCTER
notes: mixed-lineage leukemia 1 (MLL1), PHD3 domain, residues 1564 to 1627 (chain B 1564–1627); coordinates two zinc ions; The tag was removed with TEV protease on the chitin column; also called MLL1 PHD3; MLL1-PHD3; source: E. coli BL21-(DE3), codon-optimized construct, IMPACT system, purified (chitin beads, TEV cleavage, Superdex 75)

What was measured:
Conditions in all cases: both partners purified
[1] = molecular target: Cyp33 RRM/MLL1 PHD3 complex (human | , UniProt Q9UNP9 1-114; Q03164 1564-1627); assay: ITC; conditions not given (table S1, fig. S2)
Cyp33 RRM/MLL1 PHD3 complex, sequence (Q9UNP9 other isoform, or with tags, fused parts or gaps): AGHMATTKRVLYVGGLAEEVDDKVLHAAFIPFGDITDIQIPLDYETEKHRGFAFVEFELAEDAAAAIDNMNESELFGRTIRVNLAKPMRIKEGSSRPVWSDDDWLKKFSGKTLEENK

[2] = molecular target: B2; assay: ITC; conditions not given (table S1, fig. S2)
Cyp33 full-length (FL) = molecular target: T1, Cyp33 full-length (FL) (human, UniProt Q9UNP9 1-301); assay: NMR titration; Cyp33 FL:UAAUGU RNA complex mixed with MLL1 PHD3:H3K4me3 complex at 1:1:1:1 stoichiometry (or in large excess of Cyp33:RNA); signals of RNA, of the K4me3 methyl groups and of PHD3 residues followed
T1 construct: cyclophilin 33 (Cyp33), 33 kDa, N-terminal RRM and C-terminal cyclophilin domain; details may stand in the Supplementary Materials and Methods; also called Cyp33 FL; cyclophilin 33
T1 sequence (Q9UNP9 whole entry, the tested form may be a part): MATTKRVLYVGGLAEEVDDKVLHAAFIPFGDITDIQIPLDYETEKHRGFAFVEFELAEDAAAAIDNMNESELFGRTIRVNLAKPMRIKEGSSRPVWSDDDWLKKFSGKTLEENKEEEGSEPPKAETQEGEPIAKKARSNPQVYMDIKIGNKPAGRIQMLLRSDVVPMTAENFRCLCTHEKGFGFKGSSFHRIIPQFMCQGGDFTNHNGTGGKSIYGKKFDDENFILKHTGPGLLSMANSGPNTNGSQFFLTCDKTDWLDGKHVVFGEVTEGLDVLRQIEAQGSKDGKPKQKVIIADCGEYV

Kd [1] [µM]	Kd [2] [µM]	binding result (Cyp33 full-length (FL))	Binder
70	51		B1
		binds	B2

Source: paper PMC10115415, “RNA binding induces an allosteric switch in Cyp33 to repress MLL1-mediated transcription” (Science Advances, 2023)
